Experiment [1] relates to APP processing in H125.3-16 (APP695sw-KK) and H143.3-23 (APP695sw) HEK cells. Kind of experiment: Transient transfection of constructs, Elisa of Aβ in conditioned media, HEK APP695sw cell lines. Type of experiment: cell-based, human. The following applies: 48 hours after transfection. As to the method:
(§1) The construction of the cell lines used in this section has been described in U.S. Pat. No. 6,440,698. Transient transfections were carried out in 4 different cell lines: H125.3-16, N2A-APP, H143.3-23, and H167-11. The H125.3-16 cell line expresses human APP695 swedish mutant cDNA with a dilyine motif in HEK-293 cells, and the H 143.3-23 cell line expresses human APP695 swedish mutant cDNA in HEK-293 cells. The H167-1 1 cell line was developed using the same methods as the H125.3-16 and H143.3-23 cell lines, except the 167 construct DNA (pTRES-EGFP harboring the human APP695 V642F mutant cDNA containing a dilyine motif) was used. […]
(§2) Twenty-four hours prior to transfection, cells were plated at 6×10^5 cells per well of a six-well dish. […] Conditioned media was collected from the cells 48 hours after transfection and then analyzed by Elisa assay for levels of Aβ1-40 and Aβ1-42. […]

Experiment [2] concerns APP processing in H167-11 HEK cells (APP695V642F-KK). The experiment is described as follows: Transient transfection of constructs, Elisa of Aβ in conditioned media, H167-11 cell line. Type of experiment: cell-based, human. The following applies: 48 hours after transfection. As for the experimental part: as §1, §2

B1: BACE: beta-secretase (Asp2) plasmid transfected into the cell lines (protein, UniProt P56817 46-501, looked up)
Beta-secretase 1: ETDEEPEEPGRRGSFVEMVDNLRGKSGQGYYVEMTVGSPPQTLNILVDTGSSNFAVGAAPHPFLHRYYQRQLSSTYRDLRKGVYVPYTQGKWEGELGTDLVSIPHGPNVTVRANIAAITESDKFFINGSNWEGILGLAYAEIARPDDSLEPFFDSLVKQTHVPNLFSLQLCGAGFPLNQSEVLASVGGSMIIGGIDHSLYTGSLWYTPIRREWYYEVIIVRVEINGQDLKMDCKEYNYDKSIVDSGTTNLRLPKKVFEAAVKSIKAASSTEKFPDGFWLGEQLVCWQAGTTPWNIFPVISLYLMGEVTNQSFRITILPQQYLRPVEDVATSQDDCYKFAISQSSTGTVMGAVIMEGFYVVFDRARKRIGFAVSACHVHDEFRTAAVEGPFVTLDMEDCGYNIPQTDESTLMTIAYVMAAICALFMLPLCLMVCQWRCLRCLRQQHDDFADDISLLK
As for B1, in experiment [1], the “change of Aβ1-40 in conditioned media versus mock transfected cells” value is reported as “robust increase” and the “change of Aβ1-42 in conditioned media versus mock transfected cells” value is listed as “robust increase”. Further, the “change of Aβ1-40 or Aβ1-42 versus mock transfected cells” value in experiment [2] was “increase”.

Values taken from patent US6686449B2, “Mutant presenilin 1 polypeptides” (Pharmacia & Upjohn Company, priority 2000, dated 2004).
